From paper PMC5823975, “Ubiquitin-Mediated Regulation of RIPK1 Kinase Activity Independent of IKK and MK2” (Molecular Cell, 2018)
Read-outs that look alike come from different tables or passages of the source. Each block holds one molecule with its values, some of them ahead of it.

How the values were obtained:
[1] = molecular target: cIAP2 BIR1 (Homo sapiens) (UniProt Q13489); details: cited from earlier work
[2] = molecular target: T1, TRAF2 segment (recombinant, ITC) (human, UniProt Q12933 1-501); assay: ITC; cIAP2 protein (2-4 mM) injected into 0.20 mM TRAF2; 16°C; 25 mM Tris-HCl pH 8.0, 150 mM NaCl; MicroCal ITC200
T1 construct: human TRAF2 segment; it compares with Zheng et al. (2010); source: E. coli BL21 (DE3), purified (Ni-Sepharose, HiTrap Q, Superdex 200); not shown: His-SUMO, N-terminal, cleaved
T1 sequence (looked up): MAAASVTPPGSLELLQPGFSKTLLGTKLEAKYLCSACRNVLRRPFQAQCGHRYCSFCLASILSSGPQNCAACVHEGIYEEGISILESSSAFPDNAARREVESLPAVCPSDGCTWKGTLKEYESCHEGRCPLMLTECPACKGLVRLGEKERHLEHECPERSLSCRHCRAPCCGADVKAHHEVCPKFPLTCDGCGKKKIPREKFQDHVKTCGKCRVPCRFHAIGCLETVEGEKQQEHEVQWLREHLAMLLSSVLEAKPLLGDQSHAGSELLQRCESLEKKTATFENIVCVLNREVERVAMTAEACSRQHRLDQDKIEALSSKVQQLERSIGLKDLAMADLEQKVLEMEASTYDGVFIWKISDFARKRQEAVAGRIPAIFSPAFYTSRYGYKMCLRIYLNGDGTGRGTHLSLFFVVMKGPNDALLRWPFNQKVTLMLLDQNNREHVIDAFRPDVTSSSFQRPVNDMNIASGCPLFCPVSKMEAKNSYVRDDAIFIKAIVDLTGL

Molecule: TRAF2 (from UniProt Q12933)
Kd [1]: 1700 nM

Kd [2]: 480000 nM
Molecule: UBA domain of cIAP2 (from UniProt Q13489 372-425) (domain or fragment)

Kd ([2]; both partners purified): 430 nM
B1: cIAP2 segment with the BIR1 in conjunction with the UBA domain (domain or fragment)
chain: LSCELYRMSTYSTFPAGVPVSERSLARAGFYYTGVNDKVKCFCCGLMLDNWKRGDSPTEKHKKLYPSCRFVQSLNSVNNLEATSQPTFPSSVTNSTHSLLPGTENSGYFRGSYSNSPSNPVNSRANQDFSALMRSSYHCAMNNENARLLTFQTWPLTFLSPTDLAKAGFYYIGPGDRVACFACGGKLSNWEPKDNAMSEHLRHFPKCPFIENQLQDTSRYTVSNLSMQTHAARFKTFFNWPSSVLVNPEQLASAGFYYVGNSDDVKCFCCDGGLRCWESGDDPWVQHAKWFPRCEYLIRIKGQEFIRQVQASYPHLLEQLLSTSDSPGDENAESSIIHFEPGEDHSEDAIMMNTPVINAAVEMGFSRSLVKQTVQRKILATGENYRLVNDLVLDLLNAEDEIREEERERAT
modifications: Zn2+ bound by the BIR domains
